# Data as given in patent US12060424 (AMUNIX PHARMACEUTICALS, dated 2024).
# T1: human EpCAM expressed on cells (CHO cells stably transfected with human EpCAM); EpCAM-positive human tumor … (human, UniProt P16422 24-314)
# T1 construct: whole, on cells; also called EpCAM-CHO; hEp-CHO 4-12B
# T1 sequence (looked up): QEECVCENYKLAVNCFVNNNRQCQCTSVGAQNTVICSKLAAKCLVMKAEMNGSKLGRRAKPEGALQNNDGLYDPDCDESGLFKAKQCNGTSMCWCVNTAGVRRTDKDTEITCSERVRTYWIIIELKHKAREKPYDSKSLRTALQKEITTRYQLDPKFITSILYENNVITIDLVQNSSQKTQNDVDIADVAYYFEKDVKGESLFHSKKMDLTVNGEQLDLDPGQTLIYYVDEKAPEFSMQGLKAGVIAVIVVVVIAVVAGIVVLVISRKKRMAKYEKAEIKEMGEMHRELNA
# T2: Fc-tagged EpCAM (R&D Systems, cat #960-EP-050), human, coupled to SPR chip (human, UniProt P16422 24-265)
# T2 construct: Bought reagent; also called human EpCAM; EpCAM chip; not shown: Fc tag of the bought reagent
# T2 sequence (looked up): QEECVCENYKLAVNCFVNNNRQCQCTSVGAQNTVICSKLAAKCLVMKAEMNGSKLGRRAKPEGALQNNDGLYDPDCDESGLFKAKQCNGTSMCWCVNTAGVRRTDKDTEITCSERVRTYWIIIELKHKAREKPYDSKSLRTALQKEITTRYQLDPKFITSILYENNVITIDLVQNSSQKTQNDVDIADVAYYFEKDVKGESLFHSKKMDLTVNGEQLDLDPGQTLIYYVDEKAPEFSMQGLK
# T3: recombinant human EpCAM (rhEpCAM), coated on ELISA plate (human, UniProt P16422 24-265)
# T3 construct: Bought reagent
# T3 sequence (looked up): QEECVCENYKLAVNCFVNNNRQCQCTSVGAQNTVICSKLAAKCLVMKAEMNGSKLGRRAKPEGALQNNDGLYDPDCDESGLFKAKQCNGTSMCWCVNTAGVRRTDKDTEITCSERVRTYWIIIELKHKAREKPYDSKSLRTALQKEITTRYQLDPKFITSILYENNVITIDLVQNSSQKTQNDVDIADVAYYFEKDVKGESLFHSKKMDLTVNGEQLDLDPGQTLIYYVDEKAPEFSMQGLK
# Experiments:
# [1] = target: T1, human EpCAM expressed on cells (CHO …); assay: competition flow cytometry on hEp-CHO 4-12B cells
# [2] = target: recombinant human CD3 epsilon & delta (rhCD3ε & δ), Creative BioMart cat #CD3E&CD3D-219H (human) (UniProt P07766); assay: sandwich ELISA: rhCD3ε & δ coated, biotinylated anti-XTEN antibody detection
# recombinant human CD3 epsilon & delta (rhCD3ε & δ), Creative BioMart cat #CD3E&CD3D-219H (human), sequence (P07766 23-126, stated change not applied, chain 1 of 2): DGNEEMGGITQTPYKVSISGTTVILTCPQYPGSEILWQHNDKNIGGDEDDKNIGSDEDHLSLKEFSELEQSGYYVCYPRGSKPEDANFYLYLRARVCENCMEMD
# recombinant human CD3 epsilon & delta (rhCD3ε & δ), Creative BioMart cat #CD3E&CD3D-219H (human), sequence (P04234 22-105, stated change not applied, chain 2 of 2, further chain): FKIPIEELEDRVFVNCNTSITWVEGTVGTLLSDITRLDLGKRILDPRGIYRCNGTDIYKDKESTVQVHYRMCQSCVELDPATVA
# [3] = target: human CD3 on cells (CD3+ Jurkat cells; purified human CD3 positive T cells) (human, UniProt P07766 23-207); assay: cell-based or functional assay
# human CD3 on cells (CD3+ Jurkat cells; purified human CD3 positive T cells), sequence (P07766 23-207): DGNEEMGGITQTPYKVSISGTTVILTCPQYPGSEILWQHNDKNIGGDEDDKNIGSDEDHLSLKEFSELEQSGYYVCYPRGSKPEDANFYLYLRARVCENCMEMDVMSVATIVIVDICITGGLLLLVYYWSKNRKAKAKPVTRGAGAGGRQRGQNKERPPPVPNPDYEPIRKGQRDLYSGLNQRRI
# [4] = target: recombinant human CD3 epsilon & delta (rhCD3ε & δ), Creative BioMart cat #CD3E&CD3D-219H (human) (UniProt P07766); assay: sandwich ELISA: rhCD3ε & δ coated, peroxidase-conjugated protein L detection
# [5] = target: T2, Fc-tagged EpCAM (R&D Systems, cat …); assay: SPR (Biacore 3000), Fc-tagged EpCAM coupled to chip, ProTIA as analyte at 5-6 concentrations
# [6] = target: T3, recombinant human EpCAM (rhEpCAM), …; assay: sandwich ELISA: rhEpCAM coated, peroxidase-conjugated protein L detection
# [7] = target: T1, human EpCAM expressed on cells (CHO …); assay: cell-based or functional assay
# [8] = target: recombinant human CD3 epsilon & delta (rhCD3ε & δ), Creative BioMart cat #CD3E&CD3D-219H (human) (UniProt P07766); assay: SPR (Biacore 3000), His-tagged CD3εδ coupled to chip, ProTIA as analyte at 5-6 concentrations
fold weaker binding affinity than cleaved AC1968 [1],EC50 [2],EC50 [4],Kd [5],EC50 [6],Kd [8],Binder,"EC50, LDH release cytotoxicity, purified human CD3 positive T cells with OVCAR-3 cells 5:1 [3]","EC50, LDH release cytotoxicity, purified human CD3 positive T cells with SK-OV-3 cells 5:1 [3]","EC50 (pM), caspase 3/7 cytotoxicity, PBMC with HCT-116 cells 10:1 [7]","EC50 (pM), caspase 3/7 cytotoxicity, PBMC with HPAF-II cells 10:1 [7]","EC50 (pM), caspase 3/7 cytotoxicity, PBMC with MDA-MB-231 cells 10:1 [7]"
~100 fold,,,,,,"AC1952 anti-human EpCAM×anti-human CD3 ProTIA with two XTEN, RSR-2295, uncleaved (bispecific antibody, XTEN-RSR2295-anti-EpCAM scFv-anti-CD3 (hCD3.9) scFv-RSR2295-XTEN-His6) SPAGSPTSTEEGTSESATPESGPGTSTEPSEGSAPGTSESATPESGPGSEPATSGSETPGTSESATPESGPGSEPATSGSETPGTSESATPESGPGTSTEPSEGSAPGSPAGSPTSTEEGTSESATPESGPGSEPATSGSETPGTSESATPESGPGSPAGSPTSTEEGSPAGSPTSTEEGTSTEPSEGSAPGTSESATPESGPGTSESATPESGPGTSESATPESGPGSEPATSGSETPGSEPATSGSETPGSPAGSPTSTEEGTSTEPSEGSAPGTSTEPSEGSAPGGSAPEAGRSANHTPAGLTGPATSGSETPGTDIQMTQSPSSLSASVGDRVTITCRSTKSLLHSNGITYLYWYQQKPGKAPKLLIYQMSNLASGVPSRFSSSGSGTDFTLTISSLQPEDFATYYCAQNLEIPRTFGQGTKVEIKGATPPETGAETESPGETTGGSAESEPPGEGQVQLVQSGPGLVQPGGSVRISCAASGYTFTNYGMNWVKQAPGKGLEWMGWINTYTGESTYADSFKGRFTFSLDTSASAAYLQINSLRAEDTAVYYCARFAIKGDYWGQGTLLTVSSGGGGSELVVTQEPSLTVSPGGTVTLTCRSSTGAVTTSNYANWVQQKPGQAPRGLIGGTNKRAPGTPARFSGSLLGGKAALTLSGVQPEDEAEYYCALWYSNLWVFGGGTKLTVLGATPPETGAETESPGETTGGSAESEPPGEGEVQLLESGGGLVQPGGSLKLSCAASGFTFNTYAMNWVRQAPGKGLEWVARIRSKYNNYATYYADSVKDRFTISRDDSKNTAYLQMNNLKTEDTAVYYCVRHGNFGNSYVSWFAYWGQGTLVTVSSGTAEAASASGEAGRSANHTPAGLTGPPGSPAGSPTSTEEGTSESATPESGPGTSTEPSEGSAPGSPAGSPTSTEEGTSTEPSEGSAPGTSTEPSEGSAPGTSESATPESGPGSEPATSGSETPGSEPATSGSETPGSPAGSPTSTEEGTSESATPESGPGTSTEPSEGSAPGTSTEPSEGSAPGSPAGSPTSTEEGTSTEPSEGSAPGTSTEPSEGSAPGTSESATPESGPGTSTEPSEGSAPGTSESATPESGPGSEPATSGSETPGTSTEPSEGSAPGTSTEPSEGSAPGTSESATPESGPGTSESATPESGPGSPAGSPTSTEEGTSESATPESGPGSEPATSGSETPGTSESATPESGPGTSTEPSEGSAPGTSTEPSEGSAPGTSTEPSEGSAPGTSTEPSEGSAPGTSTEPSEGSAPGTSTEPSEGSAPGSPAGSPTSTEEGTSTEPSEGSAPGTSESATPESGPGSEPATSGSETPGTSESATPESGPGSEPATSGSETPGTSESATPESGPGTSTEPSEGSAPGTSESATPESGPGSPAGSPTSTEEGSPAGSPTSTEEGSPAGSPTSTEEGTSESATPESGPGTSTEPSEGSAPGTSESATPESGPGSEPATSGSETPGTSESATPESGPGSEPATSGSETPGTSESATPESGPGTSTEPSEGSAPGSPAGSPTSTEEGTSESATPESGPGSEPATSGSETPGTSESATPESGPGSPAGSPTSTEEGSPAGSPTSTEEGTSTEPSEGSAPGTSESATPESGPGTSESATPESGPGTSESATPESGPGSEPATSGSETPGSEPATSGSETPGSPAGSPTSTEEGTSTEPSEGSAPGTSTEPSEGSAPGSEPATSGSETPGTSESATPESGPGTSTEPSEGSAPGHHHHHH",,,,,
,0.027 µg/mL,2.2 nM,10 nM,0.32 nM,27.8 nM,"AC1484 non-cleavable anti-EpCAM×anti-CD3 ProTIA (ProTIA without the release segment cleavage sequence) (bispecific antibody, Single chain: anti-EpCAM scFv, anti-CD3 scFv, XTEN864, His6, no release segment; also called non-cleavable ProTIA; protease-non-cleavable anti-EpCAM×anti-CD3 ProTIA) DIQMTQSPSSLSASVGDRVTITCRSTKSLLHSNGITYLYWYQQKPGKAPKLLIYQMSNLASGVPSRFSSSGSGTDFTLTISSLQPEDFATYYCAQNLEIPRTFGQGTKVEIKGATPPETGAETESPGETTGGSAESEPPGEGQVQLVQSGPGLVQPGGSVRISCAASGYTFTNYGMNWVKQAPGKGLEWMGWINTYTGESTYADSFKGRFTFSLDTSASAAYLQINSLRAEDTAVYYCARFAIKGDYWGQGTLLTVSSGGGGSDIQMTQSPSSLSASVGDRVTITCRASQDIRNYLNWYQQKPGKAPKLLIYYTSRLESGVPSRFSGSGSGTDYTLTISSLQPEDFATYYCQQGNTLPWTFGQGTKVEIKGATPPETGAETESPGETTGGSAESEPPGEGEVQLVESGGGLVQPGGSLRLSCAASGYSFTGYTMNWVRQAPGKGLEWVALINPYKGVSTYNQKFKDRFTISVDKSKNTAYLQMNSLRAEDTAVYYCARSGYYGDSDWYFDVWGQGTLVTVSSGSPGSPAGSPTSTEEGTSESATPESGPGTSTEPSEGSAPGSPAGSPTSTEEGTSTEPSEGSAPGTSTEPSEGSAPGTSESATPESGPGSEPATSGSETPGSEPATSGSETPGSPAGSPTSTEEGTSESATPESGPGTSTEPSEGSAPGTSTEPSEGSAPGSPAGSPTSTEEGTSTEPSEGSAPGTSTEPSEGSAPGTSESATPESGPGTSTEPSEGSAPGTSESATPESGPGSEPATSGSETPGTSTEPSEGSAPGTSTEPSEGSAPGTSESATPESGPGTSESATPESGPGSPAGSPTSTEEGTSESATPESGPGSEPATSGSETPGTSESATPESGPGTSTEPSEGSAPGTSTEPSEGSAPGTSTEPSEGSAPGTSTEPSEGSAPGTSTEPSEGSAPGTSTEPSEGSAPGSPAGSPTSTEEGTSTEPSEGSAPGTSESATPESGPGSEPATSGSETPGTSESATPESGPGSEPATSGSETPGTSESATPESGPGTSTEPSEGSAPGTSESATPESGPGSPAGSPTSTEEGSPAGSPTSTEEGSPAGSPTSTEEGTSESATPESGPGTSTEPSEGSAPGTSESATPESGPGSEPATSGSETPGTSESATPESGPGSEPATSGSETPGTSESATPESGPGTSTEPSEGSAPGSPAGSPTSTEEGTSESATPESGPGSEPATSGSETPGTSESATPESGPGSPAGSPTSTEEGSPAGSPTSTEEGTSTEPSEGSAPGTSESATPESGPGTSESATPESGPGTSESATPESGPGSEPATSGSETPGSEPATSGSETPGSPAGSPTSTEEGTSTEPSEGSAPGTSTEPSEGSAPGSEPATSGSETPGTSESATPESGPGTSTEPSEGSAPGHHHHHH",0.086 nM,2.66 nM,1270 pM,1170 pM,10200 pM
